Read-outs that look alike come from different tables or passages of the source. Each block holds one binder with its values, some of them ahead of it.
Tests used:
[1] = target: T1, Ded1-His6 (S. cerevisiae, UniProt P06634 1-604); assay: pull-down; purified GST-eIF4G1 fragments bound to glutathione Sepharose beads, incubated with Ded1, eluted with 10 mM reduced glutathione; Coomassie-stained SDS PAGE, verified by western blot for Ded1; same results with or without RNase I or AMP-PNP; details: both partners purified
T1 construct: Ded1 of S. cerevisiae, recombinant, expressed from pET22b; Printed name Ded1-His6; source: E. coli (pET22b), purified on nickel-agarose
T1 sequence (P06634 whole entry, the tested form may be a part): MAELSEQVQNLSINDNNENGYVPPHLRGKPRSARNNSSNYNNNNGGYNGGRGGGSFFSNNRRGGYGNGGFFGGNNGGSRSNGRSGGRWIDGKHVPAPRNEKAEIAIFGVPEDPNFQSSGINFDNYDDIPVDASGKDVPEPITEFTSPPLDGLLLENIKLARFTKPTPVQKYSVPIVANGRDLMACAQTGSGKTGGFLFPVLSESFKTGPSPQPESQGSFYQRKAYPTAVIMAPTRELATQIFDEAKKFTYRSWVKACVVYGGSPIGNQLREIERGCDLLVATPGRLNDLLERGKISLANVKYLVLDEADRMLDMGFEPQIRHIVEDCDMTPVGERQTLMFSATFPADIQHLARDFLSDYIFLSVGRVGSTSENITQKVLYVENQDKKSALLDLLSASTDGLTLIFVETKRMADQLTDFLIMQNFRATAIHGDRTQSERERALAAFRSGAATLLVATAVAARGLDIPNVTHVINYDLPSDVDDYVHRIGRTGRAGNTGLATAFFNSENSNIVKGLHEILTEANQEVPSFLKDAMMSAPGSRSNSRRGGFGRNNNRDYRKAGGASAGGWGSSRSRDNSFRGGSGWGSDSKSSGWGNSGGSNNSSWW

[2] = target: T1, Ded1-His6
[3] = target: T1, Ded1-His6; assay: cell-based or functional assay
[4] = target: T2, eIF4G9 (S. cerevisiae, UniProt P39935 160-492); assay: pull-down; 7-methyl-GTP Sepharose beads loaded with 5 μg purified eIF4E or Cbp20, 5 μg of the purified proteins added with 50 U RNase I, 90 min on ice, TpB buffer (20 mM HEPES pH 7.9, 100 mM KCl, 2 mM MgCl2, 2 mM DTT), eluted with 1 mM 7-methyl-GTP; Coomassie-stained SDS PAGE; details: both partners purified
T2 construct: also called eIF4G9 fragment (160–492); shorten version of eIF4G1; source: E. coli (pGEX-1λT), purified
T2 sequence (looked up): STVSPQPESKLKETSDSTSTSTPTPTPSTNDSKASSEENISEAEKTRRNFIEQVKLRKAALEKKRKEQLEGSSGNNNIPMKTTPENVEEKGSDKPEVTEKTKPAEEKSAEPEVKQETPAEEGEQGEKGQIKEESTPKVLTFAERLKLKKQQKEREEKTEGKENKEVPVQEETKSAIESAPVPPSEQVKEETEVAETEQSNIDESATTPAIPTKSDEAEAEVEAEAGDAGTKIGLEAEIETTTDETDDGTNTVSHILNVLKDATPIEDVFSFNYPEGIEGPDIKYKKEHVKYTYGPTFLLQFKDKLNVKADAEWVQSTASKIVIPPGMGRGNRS

binding result [1]: binds
B1: GST-eIF4G1 fragment 882-952 (domain or fragment, S. cerevisiae, UniProt P39935 882-952, looked up)
chain: RSNSRRTNNSSNRHSFRRDAPPASKDSFITTRTYSQRNSQRAPPPKEEPAAPTSTATNMFSALMGESDDEE
notes: eIF4G1 of S. cerevisiae, residues 882-952; also called 882–952 fragment; source: E. coli (pGEX-2T), purified on glutathione Sepharose; not shown: GST, N-terminal, kept

binding result [1]: binds
B4: 1–387-GST fragment of eIF4G1 (domain or fragment, S. cerevisiae, UniProt P39935 1-387, looked up)
chain: MTDETAHPTQSASKQESAALKQTGDDQQESQQQRGYTNYNNGSNYTQKKPYNSNRPHQQRGGKFGPNRYNNRGNYNGGGSFRGGHMGANSSNVPWTGYYNNYPVYYQPQQMAAAGSAPANPIPVEEKSPVPTKIEITTKSGEHLDLKEQHKAKLQSQERSTVSPQPESKLKETSDSTSTSTPTPTPSTNDSKASSEENISEAEKTRRNFIEQVKLRKAALEKKRKEQLEGSSGNNNIPMKTTPENVEEKGSDKPEVTEKTKPAEEKSAEPEVKQETPAEEGEQGEKGQIKEESTPKVLTFAERLKLKKQQKEREEKTEGKENKEVPVQEETKSAIESAPVPPSEQVKEETEVAETEQSNIDESATTPAIPTKSDEAEAEVEAEAGDA
notes: not among the constructs of the methods

RNA-dependent ATPase activity, % Ded1 [3]: 119%
B9: Pab1 with an amino-terminal His6 tag (natural protein, S. cerevisiae, UniProt P04147 1-577, looked up)
chain: MADITDKTAEQLENLNIQDDQKQAATGSESQSVENSSASLYVGDLEPSVSEAHLYDIFSPIGSVSSIRVCRDAITKTSLGYAYVNFNDHEAGRKAIEQLNYTPIKGRLCRIMWSQRDPSLRKKGSGNIFIKNLHPDIDNKALYDTFSVFGDILSSKIATDENGKSKGFGFVHFEEEGAAKEAIDALNGMLLNGQEIYVAPHLSRKERDSQLEETKAHYTNLYVKNINSETTDEQFQELFAKFGPIVSASLEKDADGKLKGFGFVNYEKHEDAVKAVEALNDSELNGEKLYVGRAQKKNERMHVLKKQYEAYRLEKMAKYQGVNLFVKNLDDSVDDEKLEEEFAPYGTITSAKVMRTENGKSKGFGFVCFSTPEEATKAITEKNQQIVAGKPLYVAIAQRKDVRRSQLAQQIQARNQMRYQQATAAAAAAAAGMPGQFMPPMFYGVMPPRGVPFNGPNPQQMNPMGGMPKNGMPPQFRNGPVYGVPPQGGFPRNANDNNQFYQQKQRQALGEQLYKKVSAKTSNEEAAGKITGMILDLPPQEVFPLLESDELFEQHYKEASAAYESFKKEQEQQTEQA

binding result [4]: binds | RNA-dependent ATPase activity, % Ded1 [3]: 105%
B10: eIF4E with an amino-terminal His6 tag (natural protein, S. cerevisiae, UniProt P07260 1-213, looked up)
chain: MSVEEVSKKFEENVSVDDTTATPKTVLSDSAHFDVKHPLNTKWTLWYTKPAVDKSESWSDLLRPVTSFQTVEEFWAIIQNIPEPHELPLKSDYHVFRNDVRPEWEDEANAKGGKWSFQLRGKGADIDELWLRTLLAVIGETIDEDDSQINGVVLSIRKGGNKFALWTKSEDKEPLLRIGGKFKQVLKLTDDGHLEFFPHSSANGRHPQPSITL
notes: eIF4E (CDC33) of S. cerevisiae cloned into the NdeI-BamHI sites of pET15b; also called CDC33; source: E. coli (pET15b), purified on nickel-agarose

Further lines, the binder ahead of its results:

B2: Cbp80 (1–556) (domain or fragment)
chain: MFNRKRRGDFDEDENYRDFRPRMPKRQRIPPVVQLCKEMMPDIRTIGESVKAFEDDIKFLSEAIMNEYGHEDYFNNALLSTLNAVVVEQPQKQAAIALLTMVVNSKNNVAGKSIINYFFEELQKWCKQTYNDEFKSTSNETGPWNKIKLILRFLSILSPMFLVDELINIYKSLFELSIELNNLDPGNRVPLSEAIYTNTLLNIPYLFFFNRNNDGLRTKVEELLAYVEQNYLVKTTDINLLREYNGEPPYEMVELVRVVLPNVKKALINNLEQLNELFPDWNHLLTPQTGDEGFNDALTLPSVDDLKSFVRLNKNFGSVDSMWKTPRYAFHVYLPNSAGNFETVVPISTYAGQLFNDIIIDLVESLEFNRKEVARQVITLDLFFKAGIFTEPGESIAQLIATYEENPLAPTFKIEDLAIETILGLIFKLPSVSQPFAYFYTLLVDICQNSPKAIAPVFGRAFRFFYSHLDSLDFELKLRYLDWFSIQMSNFNFSWKWNEWEDDSIKFGKYFYNPKVNFAKNLIQKELRLTSNFSEVEDSLPQEFTKYLDTSYIPRD
RNA-dependent ATPase activity, % Ded1 [2]: 220%

B3: Gle1 (recombinant) (natural protein, S. cerevisiae, UniProt Q12315 1-538, looked up)
chain: MRFVFDEVFNSDTDSPEFEETCSTTSSTSSQCPTPEPSPAIKLPSFTKVGTKKLVNESVVILDPALENALRDLNLQSKLIPINEPIVAASSIIVPHSTNMPLPRASHSSLLDNAKNSNATAPLLEAIEESFQRKMQNLVLANQKEIQSIRENKRRVEEQRKRKEEEERKRKEAEEKAKREQELLRQKKDEEERKRKEAEAKLAQQKQEEERKKIEEQNEKERQLKKEHEAKLLQQKDKLGKAVTNFDKISKMFWHYKDKIAQIKQDIVLPIKKADVNVRNLLSRHKRKINPKFGQLTNSNQQLFKIQNELTQLINDTKGDSLAYHWILNFIAKAVVHQAETEVRVKPESALPLGKLTLYLLVQFPELQELFMARLVKKCPFVIGFTCEIDTEKGRQNMGWKRNNENKWEDNTSYDERMGGILSLFAIITRLQLPQEFITTTSHPFPIALSWHILARICNTPLNLITNTHFVILGSWWDAAAVQFLQAYGNQASKLLILIGEELTSRMAEKKYVGAARLRILLEAWQNNNMESFPEMSP
RNA-dependent ATPase activity, % Ded1 [3]: 191%

B5: GST-eIF4G1 fragment 1-596 (domain or fragment, S. cerevisiae, UniProt P39935 1-596, looked up)
chain: MTDETAHPTQSASKQESAALKQTGDDQQESQQQRGYTNYNNGSNYTQKKPYNSNRPHQQRGGKFGPNRYNNRGNYNGGGSFRGGHMGANSSNVPWTGYYNNYPVYYQPQQMAAAGSAPANPIPVEEKSPVPTKIEITTKSGEHLDLKEQHKAKLQSQERSTVSPQPESKLKETSDSTSTSTPTPTPSTNDSKASSEENISEAEKTRRNFIEQVKLRKAALEKKRKEQLEGSSGNNNIPMKTTPENVEEKGSDKPEVTEKTKPAEEKSAEPEVKQETPAEEGEQGEKGQIKEESTPKVLTFAERLKLKKQQKEREEKTEGKENKEVPVQEETKSAIESAPVPPSEQVKEETEVAETEQSNIDESATTPAIPTKSDEAEAEVEAEAGDAGTKIGLEAEIETTTDETDDGTNTVSHILNVLKDATPIEDVFSFNYPEGIEGPDIKYKKEHVKYTYGPTFLLQFKDKLNVKADAEWVQSTASKIVIPPGMGRGNRSRDSGRFGNNSSRGHDFRNTSVRNMDDRANSRTSSKRRSKRMNDDRRSNRSYTSRRDRERGSYRNEEKREDDKPKEEVAPLVPSANRWVPKFKSKKTEKKLAPDG
RNA-dependent ATPase activity, % Ded1 [3]: 206%

B6: GST-NAB2-HIS6 (natural protein, S. cerevisiae, UniProt P32505 1-525, looked up)
chain: MSQEQYTENLKVIVAEKLAGIPNFNEDIKYVAEYIVLLIVNGGTVESVVDELASLFDSVSRDTLANVVQTAFFALEALQQGESAENIVSKIRMMNAQSLGQSDIAQQQQQQQQQQQPDIAQQQPQQQPQQQPQQQPQQQPQQQPQQQPQQQPQQQPQLQPLQPQLGTQNAMQTDAPATPSPISAFSGVVNAAAPPQFAPVDNSQRFTQRGGGAVGKNRRGGRGGNRGGRNNNSTRFNPLAKALGMAGESNMNFTPTKKEGRCRLFPHCPLGRSCPHAHPTKVCNEYPNCPKPPGTCEFLHPNEDEELMKEMERTREEFQKRKADLLAAKRKPVQTGIVLCKFGALCSNPSCPFGHPTPANEDAKVIDLMWCDKNLTCDNPECRKAHSSLSKIKEVKPISQKKAAPPPVEKSLEQCKFGTHCTNKRCKYRHARSHIMCREGANCTRIDCLFGHPINEDCRFGVNCKNIYCLFRHPPGRVLPEKKGAAPNSNVPTNERPFALPENAIIENAPPQTSFTHQEQDTEMN
RNA-dependent ATPase activity, % Ded1 [3]: 150%

B7: GST-eIF4G1 fragment 542-952 (domain or fragment, S. cerevisiae, UniProt P39935 542-952, looked up)
chain: SYTSRRDRERGSYRNEEKREDDKPKEEVAPLVPSANRWVPKFKSKKTEKKLAPDGKTELLDKDEVERKMKSLLNKLTLEMFDAISSEILAIANISVWETNGETLKAVIEQIFLKACDEPHWSSMYAQLCGKVVKELNPDITDETNEGKTGPKLVLHYLVARCHAEFDKGWTDKLPTNEDGTPLEPEMMSEEYYAAASAKRRGLGLVRFIGFLYRLNLLTGKMMFECFRRLMKDLTDSPSEETLESVVELLNTVGEQFETDSFRTGQATLEGSQLLDSLFGILDNIIQTAKISSRIKFKLIDIKELRHDKNWNSDKKDNGPKTIQQIHEEEERQRQLKNNSRSNSRRTNNSSNRHSFRRDAPPASKDSFITTRTYSQRNSQRAPPPKEEPAAPTSTATNMFSALMGESDDEE
RNA-dependent ATPase activity, % Ded1 [3]: 141%

B8: Cbp80 (557–861) (domain or fragment)
chain: QLINYYQSLFTGYTVEEDSVRKNDLYFRQEGVPMENTVRKILDYTHKANNSREVTELESILGELKNEYGSIISDFNRFVIILLVQAVTDSGSRSLSHANKYINDLKEDLKTIFAKIELDIETKEYIIIEAVLTFWNANPQTGFLVADAFKYAGLLTSRTIFTFIFNETGLKNNGLIEATAIEAVFRNLSQQISEENESGNNFEFVFERLCTIANSTIDLLDVNADEDIEIPKVNGEMDIDDIEDDKLDLKWKYFTVIGFIKSILRRYSHEYRELADKFIANIDNAIPHESTRRTISNWIQETKEV
RNA-dependent ATPase activity, % Ded1 [2]: 144%

— article PMC4150762, “The DEAD-box helicase Ded1 from yeast is an mRNP cap-associated protein that shuttles between the cytoplasm and nucleus” (Nucleic Acids Research, 2014)
